Columns and labels:
[1] = target: the molecule itself; assay: cross-linking; quantitative crosslinking MS (XL-MS) with the PIR crosslinker BDP-NHP on rCKM: control, acetylated, and Sirt2-deacetylated; links mapped to PDB 1U6R
[2] = target: the molecule itself; assay: native gel or EMSA; human rCKM, nonacetylated or in vitro acetylated, on 10% native-PAGE at 4°C (running buffer 50 mM Tris-Base, 50 mM MOPS, 0.0375% SDS, pH 7.8), blotted with anti-CKM; dimer and monomer bands by densitometry; dimer to monomers
[3] = target: the molecule itself; assay: native gel or EMSA; CKM enriched from TAC-stressed mouse hearts, incubated with or without Sirt2 in vitro, then native-PAGE and anti-CKM blot; dimer to monomers
[4] = target: the molecule itself; assay: native gel or EMSA; murine cardiac lysates of sham and TAC hearts (50 mM potassium phosphate, 1 mM EDTA, 1 mM beta-mercaptoethanol, pH 7.4, 0.1% Triton X-100) on 10% native-PAGE at 4°C, blotted with anti-CKM; dimer to monomers

B1: Human recombinant CKM, in vitro acetylated (enzyme)
chain: not shown
modifications: acetyl-lysine at several lysines after in vitro acetylation (lysine residues 11, 32 and 196 are named; full list in Figure 5D)
notes: creatine kinase M-type (muscle form, CKM), human; 381-amino acid polypeptide; Same protein as m1 after in vitro acetylation; also called acetylated rCKM; in vitro acetylated rCKM
fold reduction of the homodimer crosslink K11-K11 against control rCKM [1]: 2 fold
fold reduction of the homodimer crosslink K196-K196 against control rCKM [1]: 9 fold
fold decrease of the dimer band against nonacetylated rCKM [2]: 2.1 fold
fold increase of the monomer band against nonacetylated rCKM [2]: 5.6 fold

B2: CKM enriched from TAC-stressed mouse hearts, deacetylated in vitro by Sirt2 (enzyme)
chain: not shown
modifications: lysine acetylation of failing-heart CKM, reduced by Sirt2
notes: creatine kinase M-type (CKM), mouse (129S1/SvImJ); also called enriched CKM from TAC-stressed hearts + Sirt2; source: enriched from TAC mouse hearts (Blue Sepharose, Deae Sephadex A-50), then incubated with Sirt2
fold decrease of the monomer against enriched TAC CKM without Sirt2 [3]: 3.5 fold

B3: Human recombinant creatine kinase MM (rCKM), nonacetylated (enzyme)
chain: not shown
notes: creatine kinase M-type (muscle form, CKM), human; 381-amino acid polypeptide; The rows are of the chain with itself (MM homodimer); also called Human CK MM; CK muscle form; source: bought: R & D Systems (catalog 9070-CK) and Abcam (catalog ab73652)
stoichiometry N [2]: 2

B4: Human recombinant CKM, in vitro acetylated and then deacetylated by Sirt2 (enzyme)
chain: not shown
modifications: acetyl-lysines removed in part by Sirt2 (lysine residues 11, 32 and 196 robustly deacetylated)
notes: creatine kinase M-type (muscle form, CKM), human; 381-amino acid polypeptide; Same protein as m2 after the in vitro deacetylation reaction; also called Sirt2-treated rCKM; Sirt2 deacetylated rCKM
fold increase of the homodimer crosslink K11-K11 against acetylated rCKM [1]: 1.3 fold
fold increase of the homodimer crosslink K196-K196 against acetylated rCKM [1]: 1.8 fold

B5: Murine CKM in cardiac lysates of sham and TAC-stressed hearts (enzyme)
chain: not shown
modifications: lysine acetylation, significantly higher in the failing (TAC) hearts
notes: creatine kinase M-type (CKM), mouse (129S1/SvImJ); Sham and TAC hearts are kept as one molecule; the treatment is named in the rows; also called muscle CK isoform; source: endogenous, mouse heart lysate (sham and TAC, 12 weeks)
fold decrease of the dimer content, TAC against sham hearts [4]: 1.4 fold
fold increase of the monomer, TAC against sham hearts [4]: 2.8 fold

From PMC7934860, “Acetylation of muscle creatine kinase negatively impacts high-energy phosphotransfer in heart failure” (JCI Insight, 2021)
